Source: paper doi:10.1101/749960

Biological target: isolated C-terminal domain of FusB (FusBCTD) (Pectobacterium carotovorum LMG2410)
Experiment: ITC

spinach ferredoxin (FerSp) (from UniProt P00221 51-147) (natural protein)
Kd: 8.7 µM
